Where “and” joins values, the source holds several entries; their conditions need not be identical. Identical values can stand only once.

One molecule from patent US11077159B2, “Compositions from halophyte plants and methods of use thereof” (KHALIFA UNIVERSITY OF SCIENCE AND TECHNOLOGY, priority 2017, dated 2021) can be followed below.

This test deals with NHEK. Briefly: Migration/proliferation of NHEK, wound recovery by kinetic image analysis. It counts as cell-based, human. The following applies: 10 ng/ml, single image. As to the method:
Botanical extracts were evaluated for anti-aging, cell renewal and anti-inflammatory properties via systemic application (diluted in the culture medium) using the concentrations that were determined not toxic for skin cells (0.1 mg/ml) followed by two successive 3-fold dilutions. The matrix metalloproteinase-1 (MMP-1) assay using a specific ELISA kit was used to evaluate anti-aging properties. The migration/proliferation of NHEK using kinetic image analysis of the wound recovery was used to evaluate cell renewal properties. The IL-8 release on NHEK stimulated by PMA using a specific ELISA kit was used to evaluate anti-inflammatory properties.

B1: EGF: control (EGF) at 10 ng/ml in the wound recovery assay (protein, UniProt P01133 23-1207, looked up)
Pro-epidermal growth factor: PQHWSCPEGTLAGNGNSTCVGPAPFLIFSHGNSIFRIDTEGTNYEQLVVDAGVSVIMDFHYNEKRIYWVDLERQLLQRVFLNGSRQERVCNIEKNVSGMAINWINEEVIWSNQQEGIITVTDMKGNNSHILLSALKYPANVAVDPVERFIFWSSEVAGSLYRADLDGVGVKALLETSEKITAVSLDVLDKRLFWIQYNREGSNSLICSCDYDGGSVHISKHPTQHNLFAMSLFGDRIFYSTWKMKTIWIANKHTGKDMVRINLHSSFVPLGELKVVHPLAQPKAEDDTWEPEQKLCKLRKGNCSSTVCGQDLQSHLCMCAEGYALSRDRKYCEDVNECAFWNHGCTLGCKNTPGSYYCTCPVGFVLLPDGKRCHQLVSCPRNVSECSHDCVLTSEGPLCFCPEGSVLERDGKTCSGCSSPDNGGCSQLCVPLSPVSWECDCFPGYDLQLDEKSCAASGPQPFLLFANSQDIRHMHFDGTDYGTLLSQQMGMVYALDHDPVENKIYFAHTALKWIERANMDGSQRERLIEEGVDVPEGLAVDWIGRRFYWTDRGKSLIGRSDLNGKRSKIITKENISQPRGIAVHPMAKRLFWTDTGINPRIESSSLQGLGRLVIASSDLIWPSGITIDFLTDKLYWCDAKQSVIEMANLDGSKRRRLTQNDVGHPFAVAVFEDYVWFSDWAMPSVMRVNKRTGKDRVRLQGSMLKPSSLVVVHPLAKPGADPCLYQNGGCEHICKKRLGTAWCSCREGFMKASDGKTCLALDGHQLLAGGEVDLKNQVTPLDILSKTRVSEDNITESQHMLVAEIMVSDQDDCAPVGCSMYARCISEGEDATCQCLKGFAGDGKLCSDIDECEMGVPVCPPASSKCINTEGGYVCRCSEGYQGDGIHCLDIDECQLGEHSCGENASCTNTEGGYTCMCAGRLSEPGLICPDSTPPPHLREDDHHYSVRNSDSECPLSHDGYCLHDGVCMYIEALDKYACNCVVGYIGERCQYRDLKWWELRHAGHGQQQKVIVVAVCVVVLVMLLLLSLWGAHYYRTQKLLSKNPKNPYEESSRDVRSRRPADTEDGMSSCPQPWFVVIKEHQDLKNGGQPVAGEDGQAADGSMQPTSWRQEPQLCGMGTEQGCWIPVSSDKGSCPQVMERSFHMPSYGTQTLEGGVEKPHSLLSANPLWQQRALDPPHQMELTQ
modifications: Pro-epidermal growth factor
notes: control (EGF) at 10 ng/ml in the wound recovery assay
Turning to B1, the Wound area runs as follows: (16 hours) 0.86 mm^2 and 0.69 mm^2 and 0.89 mm^2; (24 hours) 0.64 mm^2 and 0.44 mm^2 and 0.63 mm^2.
